Measured values: publication PMC7221075

Tests used:
[1] = biological target: TMH-iLID membrane anchor (transmembrane helix of E. coli TatA, Val-Leu, Flag peptide, iLID) (Escherichia coli)
[2] = biological target: TMH-LOV2 V416L membrane anchor (Escherichia coli | Avena sativa)
[3] = biological target: TMH-LOV2 V416L membrane anchor (Escherichia coli | Avena sativa); remark: listed apart in the source

With SspB_Nano-SctQ bait fusion protein the light/dark secretion ratio (L/D ratio) of native T3SS substrates, in vitro secretion assay, LITESEC-supp2 (anchor from pACYC184) [1] was 0.26.

Substance Zdk1-SctQ bait fusion protein has a secretion efficiency of heterologous cargo expressed from plasmid (YopE1-53-NanoLuc-FLAG), LITESEC-act3, in light [2] of 50%, a light/dark secretion ratio (L/D ratio) of native T3SS substrates, in vitro secretion assay, LITESEC-act2 (anchor from pBAD) [3] of 2.16 and a light/dark secretion ratio (L/D ratio) of native T3SS substrates, in vitro secretion assay, LITESEC-act3 (anchor from pACYC184) [3] of 4.18.
